For orientation: Kd means the free concentration of one partner at which half of the binding sites on the other are occupied at equilibrium, for simple one-to-one binding.

The target in one data set is Hfq (Escherichia coli, UniProt P0A6X3 1-102). Briefly: fluorescence anisotropy; Anisotropy: buffer not given in material (as Geinguenaud 2011); pH ~5 stated for DNA complex formation; microscopy: Hfq stock in 50 mM Tris-HCl pH 7.5, 50 mM NH4Cl, 10% glycerol, 1 mM EDTA, exchanged to TE (10 mM Tris-HCl pH 8, 1 mM EDTA); TEM: 10 mM Tris-HCl, 1 mM EDTA, room temperature, 10 min. Particulars: protein: recombinant; chain copies: 6; label: 5'-fluorescein. On the technique in general: Fluorescence polarisation rises when a labelled molecule tumbles more slowly, as on binding a larger partner.

The next data set concerns the target T1, Hfq-CTR peptide (Escherichia coli, UniProt P0A6X3 64-102).
T1 chain: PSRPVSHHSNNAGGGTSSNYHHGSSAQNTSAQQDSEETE
Briefly: FTIR and SRCD; pH ~5; Anisotropy: buffer not given in material (as Geinguenaud 2011); pH ~5 stated for DNA complex formation; microscopy: Hfq stock in 50 mM Tris-HCl pH 7.5, 50 mM NH4Cl, 10% glycerol, 1 mM EDTA, exchanged to TE (10 mM Tris-HCl pH 8, 1 mM EDTA); TEM: 10 mM Tris-HCl, 1 mM EDTA, room temperature, 10 min.

Sequence of Hfq (P0A6X3 whole entry): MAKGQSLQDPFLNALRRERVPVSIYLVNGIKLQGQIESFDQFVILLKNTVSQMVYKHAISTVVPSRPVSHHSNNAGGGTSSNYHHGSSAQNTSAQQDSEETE

For AAAAAAAAAAAAAAAAAAAA (ssDNA) [dA20], the Kd with Hfq was determined as 183 ± 8 nM. Turning to AAAAAAA (ssDNA) [dA7], the Kd in the data set with Hfq turned out to be 3500 ± 200 nM.

B1: dA59 (ssDNA)
DNA: AAAAAAAAAAAAAAAAAAAAAAAAAAAAAAAAAAAAAAAAAAAAAAAAAAAAAAAAAAA
As for B1, the Kd with Hfq worked out at 166 ± 16 nM.

B2: dA59 (spectroscopy) (ssDNA)
DNA: AAAAAAAAAAAAAAAAAAAAAAAAAAAAAAAAAAAAAAAAAAAAAAAAAAAAAAAAAAA
As for B2, the binding result with Hfq-CTR peptide is listed as “binds”.

The record behind these values is PMC10392684, “Amyloid-like Hfq interaction with single-stranded DNA: involvement in recombination and replication in Escherichia coli”.
